The text below walks through data of the supplement of paper PMC10567573.

The chains are these.
B1: DVL3 (parent)
chain: FCADNPSELPPPMERTGGIGDSRP
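Note: lentivirally expressed fusions sorted by FACS into six bins by GFP to DsRed ratio, PSI derived from sequencing read proportions per bin multiplied by bin number.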

In this data set the parent is B1. Briefly: protein stability index of a GFP-peptide fusion (GPS, HEK-293T) (PSI 1-6); higher = more stable. The conditions noted are these: c terminus: a fixed tail appended.
On to FCADNPSELPPPMERTIGIGDSRP [G17I], for which the protein stability index is 4.09.

On to FCADNPSELPPPMERTSGIGDSRP [G17S], for which the protein stability index was found to be 4.3.

Regarding FCADNPSELPPPMERTGGIQDSRP [G20Q], the protein stability index is 4.79.

Consider FCADNPSELPPPMERTGGIFDSRP [G20F], for which the protein stability index came out at 3.78.

For the variant FCADNPSELPPPMERTGGICDSRP [G20C], the protein stability index was found to be 4.12.

On to FCADNPSELPPPMERTGGIHDSRP [G20H], for which the protein stability index stood at 4.18.

Take FCADNPSELPPPMERTGGIVDSRP [G20V]: the protein stability index amounted to 4.49.

For the variant FCADNPSELPPPMERTGGIADSRP [G20A], the protein stability index amounted to 4.68.

With FCADNPSELPPPMERTGGIEDSRP [G20E], the protein stability index is 4.53.

Turning to FCADNPSELPPPMERTGGISDSRP [G20S], the protein stability index was 4.4.

Turning to FCADNPSELPPPMERTGGILDSRP [G20L], the protein stability index worked out at 3.76.

As for FCADNPSELPPPMERTGGIKDSRP [G20K], the protein stability index worked out at 4.32.

FCADNPSELPPPMERTGGINDSRP [G20N]: the protein stability index was determined as 4.54.

For FCADNPSELPPPMERTGGIIDSRP [G20I], the protein stability index is 4.48.

For FCADNPSELPPPMERTGGIPDSRP [G20P], the protein stability index was determined as 5.08.

Regarding FCADNPSELPPPMERTGGIDDSRP [G20D], the protein stability index was 4.51.

As to FCADNPSELPPPMERTGGIMDSRP [G20M], the protein stability index came out at 4.18.

With FCADNPSELPPPMERTGGIYDSRP [G20Y], the protein stability index was 3.45.

In the case of FCADNPSELPPPMERTGGIRDSRP [G20R], the protein stability index came out at 3.83.

Turning to FCADNPSELPPPMERTGGITDSRP [G20T], the protein stability index worked out at 4.66.

As for FCADNPSELPPPMCRTGGIGDSRP [E14C], the protein stability index was determined as 3.68.

Take FCADNPSELPPPMDRTGGIGDSRP [E14D]: the protein stability index came to 4.55.

Take FCADNPSELPPPMARTGGIGDSRP [E14A]: the protein stability index turned out to be 4.24.

Regarding FCADNPSELPPPMWRTGGIGDSRP [E14W], the protein stability index is 1.93.

Turning to FCADNPSELPPPMYRTGGIGDSRP [E14Y], the protein stability index was found to be 3.13.

With FCADNPSELPPPMFRTGGIGDSRP [E14F], the protein stability index is 3.45.

Turning to FCADNPSELPPPMPRTGGIGDSRP [E14P], the protein stability index was 4.27.

Take FCADNPSELPPPMIRTGGIGDSRP [E14I]: the protein stability index is 3.98.

Turning to FCADNPSELPPPMTRTGGIGDSRP [E14T], the protein stability index is 4.1.

Turning to FCADNPSELPPPMQRTGGIGDSRP [E14Q], the protein stability index amounted to 4.1.

Turning to FCADNPSELPPPMKRTGGIGDSRP [E14K], the protein stability index was 4.07.

Consider FCADNPSELPPPMSRTGGIGDSRP [E14S], for which the protein stability index amounted to 4.31.

As to FCADNPSELPPPMGRTGGIGDSRP [E14G], the protein stability index worked out at 3.84.

On to FCADNPSELPPPMMRTGGIGDSRP [E14M], for which the protein stability index stood at 4.37.

In the case of FCADNPSELPPPMLRTGGIGDSRP [E14L], the protein stability index was 3.05.

In the case of FCADNPSELPPPMHRTGGIGDSRP [E14H], the protein stability index stood at 4.08.

With FCADNPSELPPPMNRTGGIGDSRP [E14N], the protein stability index stood at 4.35.

For the variant FCADNPSELPPPMRRTGGIGDSRP [E14R], the protein stability index worked out at 3.78.

For the variant FCADNPSELPPPMERGGGIGDSRP [T16G], the protein stability index turned out to be 4.45.

Consider FCADNPSELPPPMERQGGIGDSRP [T16Q], for which the protein stability index was 5.

With FCADNPSELPPPMERAGGIGDSRP [T16A], the protein stability index came out at 4.6.

On to FCADNPSELPPPMERNGGIGDSRP [T16N], for which the protein stability index was determined as 4.7.

For the variant FCADNPSELPPPMERRGGIGDSRP [T16R], the protein stability index turned out to be 4.5.

FCADNPSELPPPMERLGGIGDSRP [T16L]: the protein stability index stood at 3.8.

For the variant FCADNPSELPPPMERFGGIGDSRP [T16F], the protein stability index turned out to be 3.95.

As for FCADNPSELPPPMERYGGIGDSRP [T16Y], the protein stability index turned out to be 3.96.

For FCADNPSELPPPMERIGGIGDSRP [T16I], the protein stability index was 3.98.

Consider FCADNPSELPPPMERWGGIGDSRP [T16W], for which the protein stability index came out at 2.55.

For FCADNPSELPPPMEREGGIGDSRP [T16E], the protein stability index is 4.45.

For the variant FCADNPSELPPPMERSGGIGDSRP [T16S], the protein stability index is 4.25.

Consider FCADNPSELPPPMERVGGIGDSRP [T16V], for which the protein stability index turned out to be 4.02.

In the case of FCADNPSELPPPMERPGGIGDSRP [T16P], the protein stability index was 3.87.

Regarding FCADNPSELPPPMERDGGIGDSRP [T16D], the protein stability index is 5.18.

Regarding FCADNPSELPPPMERHGGIGDSRP [T16H], the protein stability index was 4.33.

For the variant FCADNPSELPPPMERCGGIGDSRP [T16C], the protein stability index was found to be 4.07.

In the case of FCADNPSELPPPMERKGGIGDSRP [T16K], the protein stability index turned out to be 4.29.

For the variant FCADNPSELPPPMERMGGIGDSRP [T16M], the protein stability index came out at 4.11.

On to FCADNPSELPPPMERTGGIGCSRP [D21C], for which the protein stability index was determined as 3.98.

Consider FCADNPSELPPPMERTGGIGLSRP [D21L], for which the protein stability index amounted to 3.48.

For FCADNPSELPPPMERTGGIGASRP [D21A], the protein stability index was found to be 4.36.

Take FCADNPSELPPPMERTGGIGESRP [D21E]: the protein stability index came out at 5.27.

Regarding FCADNPSELPPPMERTGGIGHSRP [D21H], the protein stability index was determined as 4.37.

Regarding FCADNPSELPPPMERTGGIGTSRP [D21T], the protein stability index worked out at 4.52.

Take FCADNPSELPPPMERTGGIGGSRP [D21G]: the protein stability index is 4.36.

For the variant FCADNPSELPPPMERTGGIGRSRP [D21R], the protein stability index worked out at 3.71.

For FCADNPSELPPPMERTGGIGSSRP [D21S], the protein stability index is 4.35.

For FCADNPSELPPPMERTGGIGFSRP [D21F], the protein stability index is 3.89.

With FCADNPSELPPPMERTGGIGNSRP [D21N], the protein stability index stood at 4.11.

For FCADNPSELPPPMERTGGIGISRP [D21I], the protein stability index is 3.77.

Turning to FCADNPSELPPPMERTGGIGPSRP [D21P], the protein stability index was 4.16.

Take FCADNPSELPPPMERTGGIGMSRP [D21M]: the protein stability index is 3.67.

As to FCADNPSELPPPMERTGGIGQSRP [D21Q], the protein stability index worked out at 4.58.

For FCADNPSELPPPMERTGGIGYSRP [D21Y], the protein stability index stood at 3.92.

As to FCADNPSELPPPMERTGGIGKSRP [D21K], the protein stability index was determined as 4.21.

On to FCADNPSELPPPMERTGGIGWSRP [D21W], for which the protein stability index was determined as 2.97.

As to FCADNPSELPPPMERTGAIGDSRP [G18A], the protein stability index was 4.49.

As to FCADNPSELPPPMERTGNIGDSRP [G18N], the protein stability index was found to be 4.89.

For FCADNPSELPPPMERTGDIGDSRP [G18D], the protein stability index came to 4.77.

As for FCADNPSELPPPMERTGQIGDSRP [G18Q], the protein stability index amounted to 4.81.

With FCADNPSELPPPMERTGPIGDSRP [G18P], the protein stability index came out at 4.04.

Turning to FCADNPSELPPPMERTGWIGDSRP [G18W], the protein stability index was 3.41.

FCADNPSELPPPMERTGTIGDSRP [G18T]: the protein stability index amounted to 4.47.

Consider FCADNPSELPPPMERTGHIGDSRP [G18H], for which the protein stability index came to 4.34.

FCADNPSELPPPMERTGMIGDSRP [G18M]: the protein stability index amounted to 4.17.

For the variant FCADNPSELPPPMERTGCIGDSRP [G18C], the protein stability index turned out to be 4.57.

As to FCADNPSELPPPMERTGEIGDSRP [G18E], the protein stability index stood at 5.06.

As to FCADNPSELPPPMERTGSIGDSRP [G18S], the protein stability index was 4.64.

Turning to FCADNPSELPPPMERTGYIGDSRP [G18Y], the protein stability index amounted to 3.38.

On to FCADNPSELPPPMERTGIIGDSRP [G18I], for which the protein stability index stood at 4.05.

As for FCADNPSELPPPMERTGFIGDSRP [G18F], the protein stability index came to 4.03.

With FCADNPSELPPPMERTGLIGDSRP [G18L], the protein stability index came to 4.34.

As to FCADNPSELPPPMERTGKIGDSRP [G18K], the protein stability index stood at 4.88.

As to FCADNPSELPPPMERTGRIGDSRP [G18R], the protein stability index is 4.34.

In the case of FCADNPSELPPPMERTGVIGDSRP [G18V], the protein stability index amounted to 4.
